{"source": "patent US11819540B2", "about": "“Methods for treating and preventing neutrophil-derived net toxicity and thrombosis” (CHILDREN'S MEDICAL CENTER CORPORATION, priority 2011, dated 2023)", "molecules": {"B1": {"name": "rhDNase-1: recombinant human DNase-1 (Dornase alpha, Pulmozyme, Genentech) (protein, UniProt P24855 23-282, looked up)", "Deoxyribonuclease-1": "LKIAAFNIQTFGETKMSNATLVSYIVQILSRYDIALVQEVRDSHLTAVGKLLDNLNQDAPDTYHYVVSEPLGRNSYKERYLFVYRPDQVSAVDSYYYDDGCEPCGNDTFNREPAIVRFFSRFTEVREFAIVPLHAAPGDAVAEIDALYDVYLDVQEKWGLEDVMLMGDFNAGCSYVRPSQWSSIRLWTSPTFQWLIPDSADTTATPTHCAYDRIVVAGMLLRGAVVPDSALPFNFQAAYGLSDQLAQAISDHYPVEVMLK"}}, "key": {"[1]": {"test_system": "flow restriction-induced DVT in mice", "assay": "IVC stenosis (flow restriction) model of deep vein thrombosis", "assay_type": "in vivo, mouse", "description": "Mice were anesthetized by isoflurane-oxygen mixture and placed in a supine position. After laparotomy, intestines were exteriorized and warm sterile saline was applied during the whole procedure to prevent drying. After gentle separation from aorta, IVC was ligated over a 30 G needle by a 7.0 polypropylene suture immediately below the renal veins (towards the tail) and then the needle was removed. The needle was placed outside the vessel so that piercing or any other injury to the IVC wall was completely avoided. This procedure allows for standardized flow restriction without endothelial injury. All visible side branches (usually 1 or 2) were also ligated. After surgery, peritoneum and skin were closed by monofilament absorbable suture and 6.0 silk, respectively. Mice were euthanized after 6 h or 48 h and thrombi developed in the IVC below the suture (towards the tail) were taken for analysis.\nAll mice were treated with DNaseI (Pulmozyme®) immediately after surgery and mice with 48 h IVC stenosis received 3 additional injections every 12 hours. The dose of every injection was 50 μg i.p. (50 μl of non-diluted Pulmozyme) and 10 μg i.v. (in 50 μl of sterile saline) in retro-orbital plexus. Control mice were injected with the same volume of DNase buffer (8.77 mg/ml sodium chloride and 0.15 mg/ml calcium chloride in sterile water for injections).\nFlow restriction model. The murine model of DVT was performed as described. […] A suture was placed on the IVC just below the renal veins over a spacer (diameter of 0.26 mm) and then the spacer was removed. […] All visible IVC side branches were also sutured. Thereafter, peritoneum and skin were closed, mice were sacrificed after 1-48 h and thrombi formed in the IVC were harvested. Sham-operated mice were opened and IVC sutured similarly to the experimental mice, but the suture was removed immediately after ligation.\nHistone infusion. A mixture of all histones isolated from calf thymus (Worthington, Lakewood, NJ, USA) was dissolved in sterile saline and infused intravenously in mice immediately before IVC stenosis application. The dose used (10 mg kg^−1) is known to produce a 25% decrease in platelet count 10 min after infusion. The infused solution of histone mix was essentially endotoxin-free (<0.025 EU mL^−1; measured using the endotoxin detection kit [Lonza, Walkersville, MD, USA] according to the manufacturer's instructions). Control mice received infusion of sterile saline. Mice were sacrificed 1 h after surgery and thrombus formation was examined.\nDNase 1 infusion. DNase 1 (PULMOZYME®, Genentech, San Francisco, CA, USA) was diluted in sterile saline and injected immediately after surgery (50 μg intraperitoneally and 10 μg intravenously). In experiments with 48 h IVC stenosis, injections were repeated three more times after every 12 h. Control mice were injected with the PULMOZYME™ vehicle buffer (8.77 mg mL^−1 sodium chloride and 0.15 mg mL^−1 calcium chloride) diluted in sterile saline."}, "TRALI in BALB/c mice": {"test_system": "TRALI in BALB/c mice", "assay": "Two-event (LPS + anti-H-2Kd mAb) TRALI model", "assay_type": "in vivo, mouse", "description": "In order to determine the effect of anti-NET compounds as a treatment for TRALI, a mouse model of the 2-hit TRALI model was utilized. BALB/c male mice (8-10 week-old) were primed with an intraperitoneal injection of lipopolysaccharide (LPS) (0.1 or 0.5 mg/kg) 24 hours prior to challenge with anti-H2K^dmAb (clone 34-1-2s1, 1 mg/kg) or isotype control injected retro-orbitally. Before each injection mice were shortly anesthetized by inhalation of isoflurane. To measure the effect of DNaseI treatment on mice experiencing TRALI, mice received intranasal DNaseI (50 μg/mouse, 1 μg/ul) or 50 μl of the buffer-vehicle 10 minutes prior to the antibody injection.\nThe model was adapted from Looney et al. (2009).^20 Male BALB/c mice (8-10 week old) were primed with an i.p. injection of LPS (0.1 or 0.5 mg/kg, as indicated in the text) 24 hours prior to challenge with anti-H-2K^d mAb (clone 34-1-2s, 1 mg/kg) or isotype control injected retro-orbitally. In experiments involving DNase 1 treatment, mice that were injected with both LPS and the anti-H-2K^d mAb received i.n. DNase 1 (PULMOZYME®, Genentech, 50 μg/mouse, 1 μg/ul) 10 minutes before or 90 minutes after antibody injection. Control TRALI mice were injected with 50 μl of the DNase 1 vehicle-buffer in DNase 1 experiments. Blood collection, lung harvesting and arterial oxygen saturation measurements were all performed 2 hours after antibody injection. No event of TRALI-related death was recorded under these conditions in any of the treated mice.\nRectal temperatures were measured as an indicator of shock-like condition 2 hours post anti-H-2K^d infusion using a rectal temperature probe (MOUSEOX PLUS® system, STARR Life Sciences) connected to a POWERLAB™ data acquisition system (ADInstruments, USA).\nMouse peripheral blood counts were measured from EDTA (ethylenediaminetetraacetic acid)-anti-coagulated blood with a HEMAVET™ 950 veterinary hematology analyzer (Drew Scientific). This blood counter uses two different currents to analyze the cells. A low voltage current determines the volume and the number of cells (Coulter Impedance principle) and a high voltage current that passes through the cells generates information on their internal structure such as nucleus, fluid, granules and vacuoles.\nMice were sacrificed and intubated with a 24-gauge cannula after their tracheas were surgically isolated. The lungs were flushed three times with 0.8 ml of sterile PBS. BAL fluids were centrifuged for 5 minutes at 800 g. Protein concentration was quantified in the supernatant using the bicinchoninic acid method.\nBlood arterial oxygen saturation was recorded 2 hours after anti-H-2K^d antibody injection, using a small rodent oxymeter sensor (MOUSE^OX™, STARR Life Sciences) mounted on the collar of each tested mouse. The 2 hour endpoint was used as per the model published by Looney and colleagues in 2009.^20-22\nMouse lungs were fixed by intratracheal infusion of 1.5% formaldehyde/1.5% glutaraldehyde in sodium cacodylate buffer (pH 7.35), excised and bathed in the same solution for 2 hours at 4° C. The fixed lungs were sliced into 0.5 mm sections; the sections were washed extensively in distilled water, frozen on a liquid-helium cooled copper block, freeze-dried at −80° C., and coated with 2 nm of platinum at a 45° angle with rotation and 10 nm of carbon without rotation. Tissue was removed from the metal casting using bleach (Austin's A-1-5.25% sodium hypochlorite), washed and picked up on formvar-coated 200 mesh copper grids. Grids were photographed in a JEOL-1200 EX electron microscope at 100 kV."}, "[2]": {"settings": "6 h and 48 h IVC stenosis, vs vehicle"}, "[3]": {"settings": "intranasal DNaseI 50 μg/mouse 10 min prior to antibody"}}, "note": "Entries after “also recorded” stand apart in the source; their conditions may differ.", "data": [{"molecule": "B1", "values": [{"measurement": "protection from DVT (thrombus incidence)", "setting": "[1]; 6 h and 48 h IVC stenosis", "value": "protected mice from flow restriction-induced DVT"}, {"measurement": "thrombus length", "setting": "[1]; [2]", "value": "significantly reduced"}, {"measurement": "thrombus weight", "setting": "[1]; [2]", "value": "significantly reduced"}, {"measurement": "protection from DVT (thrombus incidence)", "setting": "[1]; 6 h and 48 h IVC stenosis, listed as DNaseI", "value": "greatly reduces the incidence of thrombosis"}, {"measurement": "mice that developed a thrombus", "setting": "[1]; 48 h IVC stenosis, 50 μg i.p. and 10 μg i.v. every 12 h, 2 of 12, vehicle 5 of 8", "value": 17, "unit": "%"}, {"measurement": "rectal temperature (shock-like condition)", "setting": "TRALI in BALB/c mice; 2 hours after mAb infusion, DNase 1 as prophylaxis or treatment", "value": "normal"}, {"measurement": "arterial oxygen saturation (mean and minimum)", "setting": "TRALI in BALB/c mice; DNase 1 i.n. 90 minutes after onset of TRALI (Post)", "value": "improves arterial oxygen saturation; also recorded: succeeded in correcting the defect in blood oxygenation"}, {"measurement": "arterial oxygen saturation (mean and minimum)", "setting": "TRALI in BALB/c mice; DNase 1 i.n. pretreatment 10 min before antibody (Pre)", "value": "succeeded in correcting the defect in blood oxygenation; also recorded: more stable arterial blood oxygen saturation and improved transient hypoxia"}, {"measurement": "down spikes in blood arterial oxygen saturation (transient hypoxia)", "setting": "TRALI in BALB/c mice; DNase 1 i.n. pretreatment vs vehicle buffer", "value": "significantly attenuated"}, {"measurement": "TRALI outcome", "setting": "TRALI in BALB/c mice; inhalation, before or after TRALI onset", "value": "had a positive effect"}, {"measurement": "fibrous material (NETs) in alveoli, electron microscopy", "setting": "TRALI in BALB/c mice; intranasal DNase 1 50 μg/mouse 10 min prior to antibody injection", "value": "absent; also recorded: prevents their alveolar accumulation; also recorded: no fibrous material could be detected"}, {"measurement": "TRALI-induced decrease of platelet counts", "setting": "TRALI in BALB/c mice; [3]", "value": "diminished"}, {"measurement": "TRALI-induced increase of BAL protein levels", "setting": "TRALI in BALB/c mice; [3]", "value": "diminished"}]}]}
